For assay [1], the target named is T1, Human B7-H4 protein antigen (coated on ELISA plates) (human, UniProt Q7Z7D3 25-259, limits assumed).
T1 construct: also called B7-H4 antigen; human B7-H4 antigen
T1 sequence: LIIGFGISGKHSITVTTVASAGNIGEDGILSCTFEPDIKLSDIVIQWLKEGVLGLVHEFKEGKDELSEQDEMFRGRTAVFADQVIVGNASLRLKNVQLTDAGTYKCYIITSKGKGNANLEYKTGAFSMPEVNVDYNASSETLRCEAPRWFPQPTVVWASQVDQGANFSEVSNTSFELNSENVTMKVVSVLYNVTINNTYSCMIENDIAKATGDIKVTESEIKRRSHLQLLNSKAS
In words: ELISA, conditioned medium on coated human B7-H4 antigen, anti-Fc-HRP/TMB.

Assay [2] deals with T1, Human B7-H4 protein antigen (coated on …). In words: ELISA, conditioned medium on coated human B7-H4 antigen, anti-Fc-HRP, OD650. As to the method:
Human B7-H4 protein antigen and control antigen were coated onto 96-well ELISA plates. The plates are then blocked with 3% BSA, and washed in PBS.
The conditioned media (4 days post transfection) were then tested for antigen binding in the 96-well ELISA. Anti-Fc-HRP was used as the detecting antibody. Plates were washed with PBS, and TMB (3,3′,5,5′-tetramethylbenzidine) was added for HRP color reaction. Once color developed, the OD₆₅₀ in each well was determined on an absorbance microplate reader.

Assay [3] has as its target T2, B7-DChIg construct (extracellular domain of human DC linked to the hinge and Fc region of a human IgG1) (human, UniProt Q9BQ51 20-220).
T2 construct: extracellular domain; Specificity control antigen in the plate-based assay; not shown: human IgG1 hinge and Fc region
T2 sequence (looked up): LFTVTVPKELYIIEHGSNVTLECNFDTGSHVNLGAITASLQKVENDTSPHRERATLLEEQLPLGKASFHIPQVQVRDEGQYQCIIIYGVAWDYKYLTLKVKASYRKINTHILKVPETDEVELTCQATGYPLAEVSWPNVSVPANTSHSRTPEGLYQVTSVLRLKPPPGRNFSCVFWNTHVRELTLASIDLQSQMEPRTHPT
In words: plate-based ELISA, hybridoma supernatant on coated B7-DChIg. As to the method: (§1) Serial dilutions were made from H74 (a commercially available anti-B7-H4 antibody), 2D1, 2E11 and 2H9 stock solutions and added to 96-well ELISA plates coated with B7-H4hIg or B7-DChIg. After incubation and wash, horseradish peroxidase (HRP) conjugated anti-mouse IgG antibody was added to the plates. After incubation and wash, 3,3′,5,5′-Tetramethylbenzidine (TMB) substrate was added. The colorimetric development was stopped by H₂SO₄ stop solution and read with a plate reader measuring absorbance at a 450 nm wavelength.
(§2) A plate-based binding assay using the B7-H4hIg construct was employed to capture the elicited antibody; antibodies were then characterized as being either IgG or IgM. As a specificity control, antibodies were also subjected to capture with a B7-DChIg construct (comprising the extracellular domain (ECD) of human DC linked to the hinge and Fc region of a human IgG1) (“B7-DChIg”) and the extent of IgG capable of binding was measured.

A further assay deals with T3, human B7-H4Ig (B7-H4hIg) (human, UniProt Q7Z7D3 25-259).
T3 construct: also called B7-H4Ig construct; not shown: Ig (Fc) part of the 'hIg' construct
T3 sequence: T1 sequence
In words: plate-based ELISA, hybridoma supernatant on coated B7-H4hIg. As to the method: as §1, §2

Assay [4] has as its target T4, human B7-H4 expressed on the surface of stably transfected HEK293 cells (human, UniProt Q7Z7D3 25-282).
T4 construct: also called 293T.B7-H4 cells; human B7-H4 arrayed on the surface of a live cell
T4 sequence: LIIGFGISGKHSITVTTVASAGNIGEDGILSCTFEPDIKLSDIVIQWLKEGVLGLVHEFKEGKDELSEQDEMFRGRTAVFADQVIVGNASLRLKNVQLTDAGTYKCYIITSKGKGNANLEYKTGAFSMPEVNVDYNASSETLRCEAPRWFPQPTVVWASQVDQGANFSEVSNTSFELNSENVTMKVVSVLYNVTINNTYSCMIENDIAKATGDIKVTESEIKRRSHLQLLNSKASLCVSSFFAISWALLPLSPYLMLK
The assay can be described thus: flow cytometry, hybridoma supernatant on HEK293 cells expressing human B7-H4, APC anti-mouse detection. As to the method: Antibodies 2D1, 2E11 and 2H9 were used either un-diluted (Neat), or diluted at 1:3, 1:9 and 1:27, to stain 293T.B7-H4 cells. For binding detection, APC labeled anti-mouse IgG antibody was utilized followed by FACS analysis of APC positive cells. H74 (a commercially available anti-B7-H4 antibody) at 1 μg/mL was used as positive control. Negative control was 1 μg/mL of mIgG1. 293T.B7-H4 cells incubated with APC labeled anti-mouse IgG antibody (DAM APC only), and parent 293 T cells stained with un-diluted 2D1 (Neat [293T]) further served as negative binding controls.
Neat and diluted hybridoma supernatants were then tested for the ability of their antibodies to bind to such cells or to control […] HEK293 cells. After washing, bound antibody was detected with allophycocyanin (APC)-conjugated, anti-mouse antibodies and the mean fluorescent intensity of the cells was determined (FIG. 3).

B1: recombinant chimeric anti-B7-H4 antibody 2D1 (2D1 heavy chain / 2D1 light chain, human IgG4 S228P) (antibody, V domains shown)
VH: EVQLVESGGGLVKPGGSLKLSCAASGFTFNSHGMSWVRQTPEKRLDWVATISDGGTYTYYPVNVKGRFTISRDNAKNNLYLQMSHLKSEDTAMYYCARDGGGGAYWGQGTLVTVSA
VL: DVVMTQTPLSLPVSLGDQASISCRSSHSLVHSNGNTYLHWYLQKPGQSPNLLIYIVSNRFSGVPDRFSGSGSGTDFTLKISRVEAEDLGVYFCSQSTHVPPTFGAGTKLELKR
notes: tested as CHO conditioned medium; also called 2D1 HC + 2D1 LC
In assay [1], B1 showed an OD650 of 1.12 OD650.

B2: recombinant antibody of 2D1 heavy chain and 2H9 light chain (human IgG4 S228P) (antibody, V domains shown)
VH: B1 VH
VL: DIVLTQSPASLAVSLGQRATISCRASESIDNYGISFMHWYQQKPGQPPKLLIYRASNLESGIPARFSGSGSRTDFTLTINPVETDDVATYFCQQSDEGRTFGGGTKLEIKR
notes: Mixed-chain combination tested as CHO conditioned medium; also called 2D1 HC + 2H9 LC
Regarding B2, in assay [2], the binding result is listed as “no binding”. This molecule also displayed an OD650 in assay [1] of 0.06 OD650.

B3: anti-human B7-H4 antibody 2D1 (murine hybridoma clone) (antibody, IgG2, V domains shown)
VH: B1 VH
VL: DVVMTQTPLSLPVSLGDQASISCRSSHSLVHSNGNTYLHWYLQKPGQSPNLLIYIVSNRFSGVPDRFSGSGSGTDFTLKISRVEAEDLGVYFCSQSTHVPPTFGAGTKLELK
notes: Mouse hybridoma antibody tested as hybridoma supernatant; also called Anti-Human B7-H4 Clone 2D1
Turning to B3, in assay [3], the binding result is given as “no binding”.

B4: recombinant antibody of 2H9 heavy chain and 2D1 light chain (human IgG4 S228P) (antibody, V domains shown)
VH: EVQLVESGGNLVKPGGSLKLSCAASGFTFSNSAMSWVRQTPEKRLEWVATISDGGRYTYYPDNVKGRFTISRDNAKNNLYLQMSHLKSEDTALYYCARDRPHWYFDVWGTGATVTVSS
VL: B1 VL
notes: Mixed-chain combination tested as CHO conditioned medium; also called 2H9 HC + 2D1 LC
On to B4, for which the binding result in assay [2] is on record as “no binding”. This molecule also returned an OD650 in assay [1] of 0.02 OD650.

B5: anti-human B7-H4 antibody 2E11 (murine hybridoma clone) (antibody, IgG1, V domains shown)
VH: EVKLVESEGGLVQPGSSMKLSCTASGFKFTDYYMAWVRQVPEKGLEWVANINYDGSSTYYLDSLKSRFIISRDNAKNILYLQMNSLKSEDTATYYCARKGYFDYWGQGTTLTVSS
VL: DIVMSQSPSSLAVSVGEKVTVSCKSSQSLLYSTNQRTYLAWFQQKPGQSPKLLIYWASTRESGVPDRFTGSGSGTDFTLTISSVKAEDLAVYYCQQYYNYPLTFGTGTKLELK
notes: Mouse hybridoma antibody tested as hybridoma supernatant; IgG1-producing clone; also called Anti-Human B7-H4 Clone 2E11
As for B5, the figures for the binding result (with human B7-H4Ig (B7-H4hIg); in assay [3]; in assay [4]) were “binds”, “no binding” and “binds”, respectively.

B6: recombinant chimeric anti-B7-H4 antibody 2H9 (2H9 heavy chain / 2H9 light chain, human IgG4 S228P) (antibody, V domains shown)
VH: B4 VH
VL: B2 VL
notes: tested as CHO conditioned medium; also called 2H9 HC + 2H9 LC
Consider B6, for which the OD650 in assay [1] came out at 1.15 OD650.

B7: anti-human B7-H4 antibody 2H9 (murine hybridoma clone) (antibody, IgG1, V domains shown)
VH: B4 VH
VL: DIVLTQSPASLAVSLGQRATISCRASESIDNYGISFMHWYQQKPGQPPKLLIYRASNLESGIPARFSGSGSRTDFTLTINPVETDDVATYFCQQSDEGRTFGGGTKLEIK
notes: Mouse hybridoma antibody tested as hybridoma supernatant; IgG1-producing clone; also called Anti-Human B7-H4 Clone 2H9
Regarding B7, in assay [3], the binding result was “no binding”.

The values are drawn from patent publication US20140356364A1 (AMPLIMMUNE, published 2014).
